In publication PMC6104945, “Structures of NHBA elucidate a broadly conserved epitope identified by a vaccine induced antibody” (PLoS ONE, 2018):

Biological target: T1, FL NHBA variant p3 (strain MC58) (Neisseria meningitidis MC58, UniProt Q7DD37, strain)
T1 construct: also called NHBAp3 (MC58); source: recombinant, purified protein antigen
Test: SPR; single-cycle kinetics, Biacore T200, 25°C; Fab 5H2 (~800-1100 RU) captured by anti-human Fab antibodies on CM5; NHBA antigen injected at 3.125-50 nM, 30 uL/min; HBS-EP pH 7.4; 1:1 Langmuir model with mass transfer term; triplicate
Details: both partners purified

B1: Fab 5H2 (Fab derived from the vaccine-elicited human monoclonal antibody 5H2) (Fab, V domains shown)
VH: QVQLQESGPGLVKPSETLSLTCTVSGGSVSSGSSYWTWIRQTPGKGLEWIGYTSYSGSTKYNPSLKSRVTLSVDMSKNQFSLKLKSVTAADTAVYFCARDRFDVASGSSFDFWGQGTLVTVSS
VL: EIVMTQTPSSLSASVGDRVTITCRASQSISNYLNWYQQKPGTAPKLLTYAASSLGSGVPSRFSGSGSGTDLTLTISSLRPEDFATYYCQQSYGSPTFGQGTKLEIR
notes: they are in the structures deposited here: PDB 5NYX chains H, M, O and PDB 5O1R chains H, I (residues Q1-C226 modelled); they are in the structures deposited here: PDB 5NYX chains L, N, P and PDB 5O1R chains L, M (residues E1-E212 modelled); Recombinant Fab; variable region genes synthesised; also called huFab 5H2; source: Expi293 cells, transient transfection, purified from supernatant …
**Q.** For B1, which Kd is on record?
**A.** 0.4 nM
